Patent publication US10428140B2, “Anti-EphA4 antibody” (EISAI R&D MANAGEMENT CO., LTD., priority 2015, dated 2019)
Changes are numbered by the printed parent chain. Each block holds one molecule with its values, some of them ahead of it.

Columns and labels:
Assay in all cases: Selectivity ELISA of humanized antibodies for human Eph receptor
Type in all cases: binding
human EphA10 = target: T1, human EphA10 (Homo sapiens, UniProt Q5JZY3); settings: coated protein 1 nM
T1 construct: a protein of the extracellular region of each human Eph receptor fused with the SEAP protein and the His tag; made in house; host or cells: Expi293F cells (culture supernatant)
T1 sequence (Q5JZY3 34-565 limits assumed): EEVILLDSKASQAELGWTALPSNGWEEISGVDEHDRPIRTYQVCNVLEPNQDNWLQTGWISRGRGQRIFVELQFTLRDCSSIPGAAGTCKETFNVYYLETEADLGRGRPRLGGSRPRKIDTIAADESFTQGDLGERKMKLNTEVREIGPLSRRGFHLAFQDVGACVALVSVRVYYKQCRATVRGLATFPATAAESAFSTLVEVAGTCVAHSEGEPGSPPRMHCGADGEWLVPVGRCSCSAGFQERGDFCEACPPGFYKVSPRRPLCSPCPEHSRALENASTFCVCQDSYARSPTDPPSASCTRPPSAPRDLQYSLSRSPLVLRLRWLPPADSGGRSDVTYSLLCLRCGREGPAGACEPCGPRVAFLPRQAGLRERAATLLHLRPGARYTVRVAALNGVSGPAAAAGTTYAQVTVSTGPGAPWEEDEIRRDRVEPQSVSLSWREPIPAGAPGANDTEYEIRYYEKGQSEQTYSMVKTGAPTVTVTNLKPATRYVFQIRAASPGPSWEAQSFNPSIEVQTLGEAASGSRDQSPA
How it was run: (§1)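 Human Eph ECD-SEAP-His fusions, harvested after 5 days of Expi293F expression, are captured on anti-His-coated wells (1 nM final). Bound humanized antibody is detected with HRP anti-IgG and TMB at 450 nm.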

human EphA3 = target: T2, human EphA3 (Homo sapiens, UniProt P29320); settings: coated protein 1 nM
T2 construct: a protein of the extracellular region of each human Eph receptor fused with the SEAP protein and the His tag; made in house; host or cells: Expi293F cells (culture supernatant)
T2 sequence (P29320 21-541 limits assumed): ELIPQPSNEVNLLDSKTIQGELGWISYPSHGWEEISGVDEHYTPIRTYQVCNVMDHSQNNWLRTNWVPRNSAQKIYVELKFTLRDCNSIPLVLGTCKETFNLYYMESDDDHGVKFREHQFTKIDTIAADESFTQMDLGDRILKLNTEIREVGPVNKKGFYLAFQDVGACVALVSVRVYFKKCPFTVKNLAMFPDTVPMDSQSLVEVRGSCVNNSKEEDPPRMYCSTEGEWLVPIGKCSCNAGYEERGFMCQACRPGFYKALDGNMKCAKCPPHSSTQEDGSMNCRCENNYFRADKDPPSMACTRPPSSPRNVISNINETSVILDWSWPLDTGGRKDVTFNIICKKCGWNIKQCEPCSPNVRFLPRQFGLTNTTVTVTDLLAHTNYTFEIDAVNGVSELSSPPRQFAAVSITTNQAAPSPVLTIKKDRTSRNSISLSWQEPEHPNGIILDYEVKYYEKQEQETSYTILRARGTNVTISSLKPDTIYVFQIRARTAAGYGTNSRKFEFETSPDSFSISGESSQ
How it was run: as §1

human EphA4 = target: T3, human EphA4 (Homo sapiens, UniProt P54764); settings: coated protein 1 nM; reference set to 100%
T3 construct: made in house; not restated for the human SEAP-His protein
How it was run: as §1

human EphB4 = target: T4, human EphB4 (Homo sapiens, UniProt P54760); settings: coated protein 1 nM
T4 construct: a protein of the extracellular region of each human Eph receptor fused with the SEAP protein and the His tag; made in house; host or cells: Expi293F cells
T4 sequence (P54760 16-539 limits assumed): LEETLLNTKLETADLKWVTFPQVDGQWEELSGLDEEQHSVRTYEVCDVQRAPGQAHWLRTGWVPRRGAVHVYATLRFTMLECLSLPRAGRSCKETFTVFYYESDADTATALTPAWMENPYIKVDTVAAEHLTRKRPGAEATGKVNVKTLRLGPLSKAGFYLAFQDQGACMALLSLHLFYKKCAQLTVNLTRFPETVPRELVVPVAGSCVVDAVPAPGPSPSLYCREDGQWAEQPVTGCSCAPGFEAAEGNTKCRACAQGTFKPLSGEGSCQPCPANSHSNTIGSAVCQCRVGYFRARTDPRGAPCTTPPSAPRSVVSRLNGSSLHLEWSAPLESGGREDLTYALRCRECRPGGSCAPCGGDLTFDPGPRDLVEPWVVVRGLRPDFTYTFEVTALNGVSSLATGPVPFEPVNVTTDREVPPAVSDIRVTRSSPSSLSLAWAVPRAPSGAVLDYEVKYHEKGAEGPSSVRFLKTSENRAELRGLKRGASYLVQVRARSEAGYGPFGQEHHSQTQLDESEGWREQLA
How it was run: as §1

T3 sequence (P54764 20-547): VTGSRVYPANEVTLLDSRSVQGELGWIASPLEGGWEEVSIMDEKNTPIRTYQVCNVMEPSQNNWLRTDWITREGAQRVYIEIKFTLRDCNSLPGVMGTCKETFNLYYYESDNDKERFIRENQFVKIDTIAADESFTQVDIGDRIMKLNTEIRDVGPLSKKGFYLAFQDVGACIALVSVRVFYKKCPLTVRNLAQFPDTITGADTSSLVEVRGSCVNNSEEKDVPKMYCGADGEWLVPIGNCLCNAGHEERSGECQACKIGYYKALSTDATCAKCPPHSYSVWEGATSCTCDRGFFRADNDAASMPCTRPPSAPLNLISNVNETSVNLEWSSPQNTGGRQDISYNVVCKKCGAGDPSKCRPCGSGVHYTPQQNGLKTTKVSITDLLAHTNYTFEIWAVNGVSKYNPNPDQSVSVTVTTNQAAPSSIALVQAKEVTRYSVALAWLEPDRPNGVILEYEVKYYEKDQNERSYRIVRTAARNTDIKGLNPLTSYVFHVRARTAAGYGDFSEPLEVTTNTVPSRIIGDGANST

B1: 145 (antibody, V domains shown)
VH: QVQLVQSGSELKKPGASVKVSCKASGYTFTDYSMHWVRQAPGQGLKWMGWINTETGEPTYADDFKGRFVFSLDTSVSTAYLQISSLKAEDTAVYYCARIPLYYYGSRYWYFDVWGQGTTVTVSS
VL: DIQMTQSPSSLSASVGDRVTITCRASENIYRNLAWYQQKPGKAPKLLLYAATNLADGVPSRFSGSGSGTDYTLTISSLQSEDFATYYCQHFWGTPWTFGQGTKVEIK
modifications: synthetic humanized antibody heavy chain variable region sequence; synthetic humanized antibody light chain variable region sequence
- hEphA10-SEAP-: absorbance at 450 nm, percentage with respect to hEphA4-SEAP-His as 100% (human EphA10): 6.5%
- hEphA3-SEAP-: absorbance at 450 nm, percentage with respect to hEphA4-SEAP-His as 100% (human EphA3): 6.6%
- hEphA4-SEAP-: absorbance at 450 nm, percentage with respect to hEphA4-SEAP-His as 100% (human EphA4): 100%
- hEphB4-SEAP-: absorbance at 450 nm, percentage with respect to hEphA4-SEAP-His as 100% (human EphB4): 6.7%

B2: 160 (antibody, V domains shown)
VH: B1 VH with V2I
VL: B1 VL with K45Q, S80P
modifications: synthetic humanized antibody heavy chain variable region sequence; synthetic humanized antibody light chain variable region sequence
- hEphA10-SEAP-: absorbance at 450 nm, percentage with respect to hEphA4-SEAP-His as 100% (human EphA10): 5.0%
- hEphA3-SEAP-: absorbance at 450 nm, percentage with respect to hEphA4-SEAP-His as 100% (human EphA3): 6.2%
- hEphA4-SEAP-: absorbance at 450 nm, percentage with respect to hEphA4-SEAP-His as 100% (human EphA4): 100%
- hEphB4-SEAP-: absorbance at 450 nm, percentage with respect to hEphA4-SEAP-His as 100% (human EphB4): 6.3%

B4: 133 (antibody, V domains shown)
VH: B1 VH with K46E, D62Q, D63G, K65T
VL: EIVMTQSPATLSVSPGERATLSCRASENIYRNLAWYQQKPGQSPRLLIYAATNLADGIPARFSGSGSGTEYTLTISSLQSEDFAVYYCQHFWGTPWTFGQGTKVEIK
modifications: synthetic humanized antibody heavy chain variable region sequence; synthetic humanized antibody light chain variable region sequence
- hEphA10-SEAP-: absorbance at 450 nm, percentage with respect to hEphA4-SEAP-His as 100% (human EphA10): 4.7%
- hEphA3-SEAP-: absorbance at 450 nm, percentage with respect to hEphA4-SEAP-His as 100% (human EphA3): 5.0%
- hEphA4-SEAP-: absorbance at 450 nm, percentage with respect to hEphA4-SEAP-His as 100% (human EphA4): 100%
- hEphB4-SEAP-: absorbance at 450 nm, percentage with respect to hEphA4-SEAP-His as 100% (human EphB4): 4.9%

B8: 155 (antibody, V domains shown)
VH: B1 VH with V2I
VL: B1 VL
modifications: synthetic humanized antibody heavy chain variable region sequence; synthetic humanized antibody light chain variable region sequence
- hEphA10-SEAP-: absorbance at 450 nm, percentage with respect to hEphA4-SEAP-His as 100% (human EphA10): 5.4%
- hEphA3-SEAP-: absorbance at 450 nm, percentage with respect to hEphA4-SEAP-His as 100% (human EphA3): 5.6%
- hEphA4-SEAP-: absorbance at 450 nm, percentage with respect to hEphA4-SEAP-His as 100% (human EphA4): 100%
- hEphB4-SEAP-: absorbance at 450 nm, percentage with respect to hEphA4-SEAP-His as 100% (human EphB4): 5.7%

B9: 159 (antibody, V domains shown)
VH: B1 VH
VL: B1 VL with K45Q, S80P
modifications: synthetic humanized antibody heavy chain variable region sequence; synthetic humanized antibody light chain variable region sequence
- hEphA10-SEAP-: absorbance at 450 nm, percentage with respect to hEphA4-SEAP-His as 100% (human EphA10): 5.3%
- hEphA3-SEAP-: absorbance at 450 nm, percentage with respect to hEphA4-SEAP-His as 100% (human EphA3): 5.4%
- hEphA4-SEAP-: absorbance at 450 nm, percentage with respect to hEphA4-SEAP-His as 100% (human EphA4): 100%
- hEphB4-SEAP-: absorbance at 450 nm, percentage with respect to hEphA4-SEAP-His as 100% (human EphB4): 5.4%

B10: 144 (antibody, V domains shown)
VH: B1 VH with K46E
VL: B1 VL with K45Q, S80P
modifications: synthetic humanized antibody heavy chain variable region sequence; synthetic humanized antibody light chain variable region sequence
- hEphA10-SEAP-: absorbance at 450 nm, percentage with respect to hEphA4-SEAP-His as 100% (human EphA10): 5.7%
- hEphA3-SEAP-: absorbance at 450 nm, percentage with respect to hEphA4-SEAP-His as 100% (human EphA3): 5.7%
- hEphA4-SEAP-: absorbance at 450 nm, percentage with respect to hEphA4-SEAP-His as 100% (human EphA4): 100%
- hEphB4-SEAP-: absorbance at 450 nm, percentage with respect to hEphA4-SEAP-His as 100% (human EphB4): 5.7%

Further lines, results first:

- hEphA10-SEAP-: absorbance at 450 nm, percentage with respect to hEphA4-SEAP-His as 100% (human EphA10): 6.4%
- hEphA3-SEAP-: absorbance at 450 nm, percentage with respect to hEphA4-SEAP-His as 100% (human EphA3): 6.5%
- hEphA4-SEAP-: absorbance at 450 nm, percentage with respect to hEphA4-SEAP-His as 100% (human EphA4): 100%
- hEphB4-SEAP-: absorbance at 450 nm, percentage with respect to hEphA4-SEAP-His as 100% (human EphB4): 6.5%
B3: 158 (antibody, V domains shown)
VH: B1 VH with D62Q, D63G, K65T
VL: B1 VL with K45Q, S80P
modifications: synthetic humanized antibody heavy chain variable region sequence; synthetic humanized antibody light chain variable region sequence

- hEphA10-SEAP-: absorbance at 450 nm, percentage with respect to hEphA4-SEAP-His as 100% (human EphA10): 4.7%
- hEphA3-SEAP-: absorbance at 450 nm, percentage with respect to hEphA4-SEAP-His as 100% (human EphA3): 4.8%
- hEphA4-SEAP-: absorbance at 450 nm, percentage with respect to hEphA4-SEAP-His as 100% (human EphA4): 100%
- hEphB4-SEAP-: absorbance at 450 nm, percentage with respect to hEphA4-SEAP-His as 100% (human EphB4): 4.8%
B5: 132 (antibody, V domains shown)
VH: B1 VH with V2I, D62Q, D63G, K65T
VL: B4 VL
modifications: synthetic humanized antibody heavy chain variable region sequence; synthetic humanized antibody light chain variable region sequence

- hEphA10-SEAP-: absorbance at 450 nm, percentage with respect to hEphA4-SEAP-His as 100% (human EphA10): 6.1%
- hEphA3-SEAP-: absorbance at 450 nm, percentage with respect to hEphA4-SEAP-His as 100% (human EphA3): 6.4%
- hEphA4-SEAP-: absorbance at 450 nm, percentage with respect to hEphA4-SEAP-His as 100% (human EphA4): 100%
- hEphB4-SEAP-: absorbance at 450 nm, percentage with respect to hEphA4-SEAP-His as 100% (human EphB4): 6.5%
B6: 157 (antibody, V domains shown)
VH: B1 VH with K46E, D62Q, D63G, K65T
VL: B1 VL with K45Q, S80P
modifications: synthetic humanized antibody heavy chain variable region sequence; synthetic humanized antibody light chain variable region sequence

- hEphA10-SEAP-: absorbance at 450 nm, percentage with respect to hEphA4-SEAP-His as 100% (human EphA10): 5.0%
- hEphA3-SEAP-: absorbance at 450 nm, percentage with respect to hEphA4-SEAP-His as 100% (human EphA3): 5.0%
- hEphA4-SEAP-: absorbance at 450 nm, percentage with respect to hEphA4-SEAP-His as 100% (human EphA4): 100%
- hEphB4-SEAP-: absorbance at 450 nm, percentage with respect to hEphA4-SEAP-His as 100% (human EphB4): 5.1%
B7: 134 (antibody, V domains shown)
VH: B1 VH with D62Q, D63G, K65T
VL: B4 VL
modifications: synthetic humanized antibody heavy chain variable region sequence; synthetic humanized antibody light chain variable region sequence
